Laboratory results from paper PMC7367873, “Dissecting the sequence determinants for dephosphorylation by the catalytic subunits of phosphatases PP1 and PP2A” (Nature Communications, 2020).

B1: SRPK1 (protein, UniProt Q96SB4 1-655, looked up)
SRSF protein kinase 1: MERKVLALQARKKRTKAKKDKAQRKSETQHRGSAPHSESDLPEQEEEILGSDDDEQEDPNDYCKGGYHLVKIGDLFNGRYHVIRKLGWGHFSTVWLSWDIQGKKFVAMKVVKSAEHYTETALDEIRLLKSVRNSDPNDPNREMVVQLLDDFKISGVNGTHICMVFEVLGHHLLKWIIKSNYQGLPLPCVKKIIQQVLQGLDYLHTKCRIIHTDIKPENILLSVNEQYIRRLAAEATEWQRSGAPPPSGSAVSTAPQPKPADKMSKNKKKKLKKKQKRQAELLEKRMQEIEEMEKESGPGQKRPNKQEESESPVERPLKENPPNKMTQEKLEESSTIGQDQTLMERDTEGGAAEINCNGVIEVINYTQNSNNETLRHKEDLHNANDCDVQNLNQESSFLSSQNGDSSTSQETDSCTPITSEVSDTMVCQSSSTVGQSFSEQHISQLQESIRAEIPCEDEQEQEHNGPLDNKGKSTAGNFLVNPLEPKNAEKLKVKIADLGNACWVHKHFTEDIQTRQYRSLEVLIGSGYNTPADIWSTACMAFELATGDYLFEPHSGEEYTRDEDHIALIIELLGKVPRKLIVAGKYSKEFFTKKGDLKHITKLKPWGLFEVLVEKYEWSQEEAAGFTDFLLPMLELIPEKRATAAECLRHPWLNS
B2: FAM83H (protein, UniProt Q6ZRV2 1-1179, looked up)
Protein FAM83H: MARRSQSSSQGDNPLAPGYLPPHYKEYYRLAVDALAEGGSEAYSRFLATEGAPDFLCPEELEHVSRHLRPPQYVTREPPEGSLLDVDMDGSSGTYWPVNSDQAVPELDLGWPLTFGFQGTEVTTLVQPPPPDSPSIKDEARRMIRSAQQVVAVVMDMFTDVDLLSEVLEAAARRVPVYILLDEMNAQHFLDMADKCRVNLQHVDFLRVRTVAGPTYYCRTGKSFKGHVKEKFLLVDCAVVMSGSYSFMWSFEKIHRSLAHVFQGELVSSFDEEFRILFAQSEPLVPSAAALARMDAYALAPYAGAGPLVGVPGVGAPTPFSFPKRAHLLFPPPREEGLGFPSFLDPDRHFLSAFRREEPPRMPGGALEPHAGLRPLSRRLEAEAGPAGELAGARGFFQARHLEMDAFKRHSFATEGAGAVENFAAARQVSRQTFLSHGDDFRFQTSHFHRDQLYQQQYQWDPQLTPARPQGLFEKLRGGRAGFADPDDFTLGAGPRFPELGPDGHQRLDYVPSSASREVRHGSDPAFAPGPRGLEPSGAPRPNLTQRFPCQAAARPGPDPAPEAEPERRGGPEGRAGLRRWRLASYLSGCHGEDGGDDGLPAPMEAEAYEDDVLAPGGRAPAGDLLPSAFRVPAAFPTKVPVPGPGSGGNGPEREGPEEPGLAKQDSFRSRLNPLVQRSSRLRSSLIFSTSQAEGAAGAAAATEKVQLLHKEQTVSETLGPGGEAVRSAASTKVAELLEKYKGPARDPGGGAGAITVASHSKAVVSQAWREEVAAPGAVGGERRSLESCLLDLRDSFAQQLHQEAERQPGAASLTAAQLLDTLGRSGSDRLPSRFLSAQSHSTSPQGLDSPLPLEGSGAHQVLHNESKGSPTSAYPERKGSPTPGFSTRRGSPTTGFIEQKGSPTSAYPERRGSPVPPVPERRSSPVPPVPERRGSLTLTISGESPKAGPAEEGPSGPMEVLRKGSLRLRQLLSPKGERRMEDEGGFPVPQENGQPESPRRLSLGQGDSTEAATEERGPRARLSSATANALYSSNLRDDTKAILEQISAHGQKHRAVPAPSPGPTHNSPELGRPPAAGVLAPDMSDKDKCSAIFRSDSLGTQGRLSRTLPASAEERDRLLRRMESMRKEKRVYSRFEVFCKKEEASSPGAGEGPAEEGTRDSKVGKFVPKILGTFKSKK
B3: PFKFB2 (protein, UniProt O60825 2-505, looked up)
6-phosphofructo-2-kinase/fruct …: SGASSSEQNNNSYETKTPNLRMSEKKCSWASYMTNSPTLIVMIGLPARGKTYVSKKLTRYLNWIGVPTKVFNLGVYRREAVKSYKSYDFFRHDNEEAMKIRKQCALVALEDVKAYLTEENGQIAVFDATNTTRERRDMILNFAEQNSFKVFFVESVCDDPDVIAANILEVKVSSPDYPERNRENVMEDFLKRIECYKVTYRPLDPDNYDKDLSFIKVINVGQRFLVNRVQDYIQSKIVYYLMNIHVQPRTIYLCRHGESEFNLLGKIGGDSGLSVRGKQFAQALRKFLEEQEITDLKVWTSQLKRTIQTAESLGVPYEQWKILNEIDAGVCEEMTYAEIEKRYPEEFALRDQEKYLYRYPGGESYQDLVQRLEPVIMELERQGNVLVISHQAVMRCLLAYFLDKGADELPYLRCPLHTIFKLTPVAYGCKVETIKLNVEAVNTHRDKPTNNFPKNQTPVRMRRNSFTPLSSSNTIRRPRNYSVGSRPLKPLSPLRAQDMQEGAD
B4: PI4KB (protein, UniProt Q9UBF8 2-816, looked up)
Phosphatidylinositol 4-kinase …: GDTVVEPAPLKPTSEPTSGPPGNNGGSLLSVITEGVGELSVIDPEVAQKACQEVLEKVKLLHGGVAVSSRGTPLELVNGDGVDSEIRCLDDPPAQIREEEDEMGAAVASGTAKGARRRRQNNSAKQSWLLRLFESKLFDISMAISYLYNSKEPGVQAYIGNRLFCFRNEDVDFYLPQLLNMYIHMDEDVGDAIKPYIVHRCRQSINFSLQCALLLGAYSSDMHISTQRHSRGTKLRKLILSDELKPAHRKRELPSLSPAPDTGLSPSKRTHQRSKSDATASISLSSNLKRTASNPKVENEDEELSSSTESIDNSFSSPVRLAPEREFIKSLMAIGKRLATLPTKEQKTQRLISELSLLNHKLPARVWLPTAGFDHHVVRVPHTQAVVLNSKDKAPYLIYVEVLECENFDTTSVPARIPENRIRSTRSVENLPECGITHEQRAGSFSTVPNYDNDDEAWSVDDIGELQVELPEVHTNSCDNISQFSVDSITSQESKEPVFIAAGDIRRRLSEQLAHTPTAFKRDPEDPSAVALKEPWQEKVRRIREGSPYGHLPNWRLLSVIVKCGDDLRQELLAFQVLKQLQSIWEQERVPLWIKPYKILVISADSGMIEPVVNAVSIHQVKKQSQLSLLDYFLQEHGSYTTEAFLSAQRNFVQSCAGYCLVCYLLQVKDRHNGNILLDAEGHIIHIDFGFILSSSPRNLGFETSAFKLTTEFVDVMGGLDGDMFNYYKMLMLQGLIAARKHMDKVVQIVEIMQQGSQLPCFHGSSTIRNLKERFHMSMTEEQLQLLVEQMVDGSMRSITTKLYDGFQYLTNGIM
B5: FAM122B (protein, UniProt Q7Z309 2-247, looked up)
PABIR family member 2: AQEKMELDLEPDTSYGGTLRRSSSAPLIHGLSDLSQVFQPYTLRTRRNSTTIMSRHSLEEGLDMVNRETAHEREMQTAMQISQSWDESLSLSDSDFDKPEKLYSPKRIDFTPVSPAPSPTRGFGKMFVSSSGLPPSPVPSPRRFSRRSQSPVKCIRPSVLGPLKRKGEMETESQPKRLFQGTTNMLSPDAAQLSDLSSCSDILDGSSSSSGLSSDPLAKGSATAESPVACSNSCSSFILMDDLSPK
B6: PPFIBP1 (protein, UniProt Q86W92 1-1011, looked up)
Liprin-beta-1: MMSDASDMLAAALEQMDGIIAGSKALEYSNGIFDCQSPTSPFMGSLRALHLVEDLRGLLEMMETDEKEGLRCQIPDSTAETLVEWLQSQMTNGHLPGNGDVYQERLARLENDKESLVLQVSVLTDQVEAQGEKIRDLEFCLEEHREKVNATEEMLQQELLSRTSLETQKLDLMAEISNLKLKLTAVEKDRLDYEDKFRDTEGLIQEINDLRLKVSEMDSERLQYEKKLKSTKSLMAKLSSMKIKVGQMQYEKQRMEQKWESLKDELASLKEQLEEKESEVKRLQEKLVCKMKGEGVEIVDRDIEVQKMKKAVESLMAANEEKDRKIEDLRQCLNRYKKMQDTVVLAQGKDGEYEELLNSSSISSLLDAQGFSDLEKSPSPTPVMGSPSCDPFNTSVPEEFHTTILQVSIPSLLPATVSMETSEKSKLTPKPETSFEENDGNIILGATVDTQLCDKLLTSSLQKSSSLGNLKKETSDGEKETIQKTSEDRAPAESRPFGTLPPRPPGQDTSMDDNPFGTRKVRSSFGRGFFKIKSNKRTASAPNLAETEKETAEHLDLAGASSRPKDSQRNSPFQIPPPSPDSKKKSRGIMKLFGKLRRSQSTTFNPDDMSEPEFKRGGTRATAGPRLGWSRDLGQSNSDLDMPFAKWTKEQVCNWLMEQGLGSYLNSGKHWIASGQTLLQASQQDLEKELGIKHSLHRKKLQLALQALGSEEETNHGKLDFNWVTRWLDDIGLPQYKTQFDEGRVDGRMLHYMTVDDLLSLKVVSVLHHLSIKRAIQVLRINNFEPNCLRRRPSDENTIAPSEVQKWTNHRVMEWLRSVDLAEYAPNLRGSGVHGGLMVLEPRFNVETMAQLLNIPPNKTLLRRHLATHFNLLIGAEAQHQKRDAMELPDYVLLTATAKVKPKKLAFSNFGNLRKKKQEDGEEYVCPMELGQASGSASKKGFKPGLDMRLYEEDDLDRLEQMEDSEGTVRQIGAFSEGINNLTHMLKEDDMFKDFAARSPSASITDEDSNV
B7: SRSF7 (protein, UniProt Q16629 1-238, looked up)
Serine/arginine-rich splicing …: MSRYGRYGGETKVYVGNLGTGAGKGELERAFSYYGPLRTVWIARNPPGFAFVEFEDPRDAEDAVRGLDGKVICGSRVRVELSTGMPRRSRFDRPPARRPFDPNDRCYECGEKGHYAYDCHRYSRRRRSRSRSRSHSRSRGRRYSRSRSRSRGRRSRSASPRRSRSISLRRSRSASLRRSRSGSIKGSRYFQSPSRSRSRSRSISRPRSSRSKSRSPSPKRSRSPSGSPRRSASPERMD
B8: NEDD4L (protein, UniProt Q96PU5 2-975, looked up)
E3 ubiquitin-protein ligase …: ATGLGEPVYGLSEDEGESRILRVKVVSGIDLAKKDIFGASDPYVKLSLYVADENRELALVQTKTIKKTLNPKWNEEFYFRVNPSNHRLLFEVFDENRLTRDDFLGQVDVPLSHLPTEDPTMERPYTFKDFLLRPRSHKSRVKGFLRLKMAYMPKNGGQDEENSDQRDDMEHGWEVVDSNDSASQHQEELPPPPLPPGWEEKVDNLGRTYYVNHNNRTTQWHRPSLMDVSSESDNNIRQINQEAAHRRFRSRRHISEDLEPEPSEGGDVPEPWETISEEVNIAGDSLGLALPPPPASPGSRTSPQELSEELSRRLQITPDSNGEQFSSLIQREPSSRLRSCSVTDAVAEQGHLPPPSAPAGRARSSTVTGGEEPTPSVAYVHTTPGLPSGWEERKDAKGRTYYVNHNNRTTTWTRPIMQLAEDGASGSATNSNNHLIEPQIRRPRSLSSPTVTLSAPLEGAKDSPVRRAVKDTLSNPQSPQPSPYNSPKPQHKVTQSFLPPGWEMRIAPNGRPFFIDHNTKTTTWEDPRLKFPVHMRSKTSLNPNDLGPLPPGWEERIHLDGRTFYIDHNSKITQWEDPRLQNPAITGPAVPYSREFKQKYDYFRKKLKKPADIPNRFEMKLHRNNIFEESYRRIMSVKRPDVLKARLWIEFESEKGLDYGGVAREWFFLLSKEMFNPYYGLFEYSATDNYTLQINPNSGLCNEDHLSYFTFIGRVAGLAVFHGKLLDGFFIRPFYKMMLGKQITLNDMESVDSEYYNSLKWILENDPTELDLMFCIDEENFGQTYQVDLKPNGSEIMVTNENKREYIDLVIQWRFVNRVQKQMNAFLEGFTELLPIDLIKIFDENELELLMCGLGDVDVNDWRQHSIYKNGYCPNHPVIQWFWKAVLLMDAEKRIRLLQFVTGTSRVPMNGFAELYGSNGPQLFTIEQWGSPEKLPRAHTCFNRLDLPPYETFEDLREKLLMAVENAQGFEGVD

System: GFP-14-3-3β and its binding proteins
Assay: GFP-14-3-3β co-IP with LC-MS/MS label-free quantification, untreated versus PP1c-treated
Parameters: species or system human
Details: log2 difference; pairwise comparison PP1 vs untreated, label-free quantification, 3 replicates each

Difference (log2), PP1 vs untreated | Molecule
1.464 | B1
1.455 | B2

Same assay, conditions: pairwise comparison PP1 vs untreated, student's t-test; 3 replicates each; LC-MS/MS label-free quantification

Difference (log2), PP1 vs untreated [log2] | Molecule
-5.844 | B3
-5.63 | B4
-5.572 | B5
-5.566 | B6
-6.84 | B7
-5.048 | B8

System: GFP-14-3-3β
Assay: GFP-14-3-3β co-IP with LC-MS/MS, untreated GFP-14-3-3β versus GFP control (14-3-3 interactome)
Format: binding, human
Details: log2 difference; pairwise comparison untreated vs GFP, label-free quantification, 3 replicates each

Molecule | Difference (log2), untreated vs GFP
B1 | 0.8168
B2 | -1.013

Same assay, conditions: pairwise comparison untreated GFP-14-3-3β vs GFP, student's t-test; 3 replicates each; LC-MS/MS label-free quantification

Molecule | Difference (log2), untreated vs GFP [log2]
B3 | 3.999
B4 | 4.864
B5 | 4.879
B6 | 6.964
B7 | 7.205
B8 | 4.407
